In PMC12484072 (Frontiers in Microbiology, 2025) one finds Kd data, which are given here for 1 molecule.

This experiment deals with T1, SaNsrP-ECD, soluble extracellular domain of SaNsrP (S. agalactiae).
T1 construct: also called SaNsrFP ECD
Put plainly: other fluorescence titration. The settings on record: both partners purified.

“And” between values parts separate entries of the source, which are not always exact repeats. Identical values can stand only once. Bridge positions count the residues as written; N and C are the ends. Square brackets hold non-standard residues; d marks the D form. Ends that are not written are not given here. dOrn = NCCC[C@@H](N)C(=O)O

Take ICL[dE]IK[dOrn]I[dF]H[dD]N (lactam 6-C; also: N-terminal thiazoline: Ile1-Cys2 condensed) [bacitracin]: the Kd (commonly a measure of binding affinity in units of concentration) is 259 µM and 304 µM.
